The subject of data set [1] is T cell clones. As to the kind of experiment: T cell receptor Vb sequencing of peripheral blood (T cell clone frequency). In kind it is in vivo, human. Here is the method:
FIGS. 11A-11C show clonal abundance plots of T cell clones for three patients treated with CP1-006. Sequencing of the Vb region of the T cell receptor was performed to identify the frequency of unique T cell clones in peripheral blood samples collected pre-treatment and on-treatment at 6 weeks of 12 mg/kg CPI-006+ciforadenant (FIG. 11A), 12 mg/kg CPI-006 (FIG. 11B), or 18 mg/kg CPI-006 (FIG. 11C). Expansion of new T cell clones was observed after 6 weeks in 3 of 8 evaluated patients treated with CPI-006.
(§1) Immunomodulatory activity of CPI-006 was evaluated in patients administered CPI-006. […] Further, T cell activation was evaluated upon treatment with various dosages of the monotherapy CPI-006 or a combination therapy of CPI-006 and ciforadenant. Once a T cell clone is activated, the clone can expand and produce clonal copies of the original clone. […] The results further affirm CPI-006 is an immunomodulator of CD73 positive cells.

A short description of data set [2]: Phase 1/1B clinical trial: serum levels of free CPI-006 by ELISA. In kind it is in vivo, human. Here is the method: FIGS. 3A-3D show the pharmacokinetics/pharmacodynamics and CD73 receptor occupancy of CPI-006 after a first infusion in human patients. […] The dotted line marks one-hundred percent occupancy CD73 receptor occupancy.
With reference to Table 1, serum samples were collected from patients treated with CPI-006 alone (i.e., monotherapy) and levels of free CPI-006 were measured by ELISA, as shown in FIG. 3A. Whole blood samples from patients treated with CPI-006 alone were fixed and receptor occupancy was measured by flow cytometry gating on CD73+CD8 T cells, as shown in FIG. 3B. As illustrated in FIGS. 3A-3D, receptor exposure to CPI-006 increases and clearance decreases with increasing doses of CPI-006, and CIP-006 is detectable for 21 days after administration of a single dose of 6 mg/kg or higher. […] Other results from the study are described below and in Table 4. BLQ is below limit of quantification. TBD is to be determined.
For orientation: In an ELISA, binding on a coated surface is turned into a signal by an enzyme label.

The target in data set [3] is T1, CD73 (Homo sapiens, UniProt P21589).
T1 construct: endogenous in cells; host or cells: Whole blood of cancer patients (CD73+ CD8 T cells)
T1 sequence (P21589 27-549): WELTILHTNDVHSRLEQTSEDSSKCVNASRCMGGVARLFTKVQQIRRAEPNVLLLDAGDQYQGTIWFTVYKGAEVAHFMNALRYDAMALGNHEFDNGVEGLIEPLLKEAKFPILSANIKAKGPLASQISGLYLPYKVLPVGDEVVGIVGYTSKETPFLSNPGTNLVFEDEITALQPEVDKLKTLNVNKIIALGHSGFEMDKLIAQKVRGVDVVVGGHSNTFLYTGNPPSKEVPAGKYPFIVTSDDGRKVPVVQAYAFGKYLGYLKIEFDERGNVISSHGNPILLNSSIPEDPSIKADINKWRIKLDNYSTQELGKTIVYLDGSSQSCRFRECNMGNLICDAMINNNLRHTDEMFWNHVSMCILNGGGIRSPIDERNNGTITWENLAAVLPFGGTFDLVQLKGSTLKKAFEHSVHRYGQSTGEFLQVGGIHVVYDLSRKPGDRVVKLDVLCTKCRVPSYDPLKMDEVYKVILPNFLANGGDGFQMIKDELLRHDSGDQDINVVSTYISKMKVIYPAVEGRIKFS
As to the kind of experiment: Occupancy and inhibition of CD73 in a tumor biopsy of a treated colorectal cancer patient. In kind it is in vivo. Conditions: 12 mg/kg, retroperitoneal lesion at trough pre-dose 3, FIG. 5. The protocol: The tumor biopsy was of a retroperitoneal lesion obtained at trough pre-dose 3.
A tumor biopsy taken from a colorectal cancer patient treated with CPI-006 was evaluated for inhibition of CD73 enzymatic activity.

Data set [4] addresses T1, CD73. The data set is described as follows: CD73 enzymatic activity in MDA-MB-231 xenograft model. Type of data set: in vivo. Conditions: MDA-MB-231 human TNBC xenograft model; FIG. 1F. The text has this: FIG. 1A provides a schematic of CD73 structure. […] Each symbol represents an independent donor.
Data set [5] deals with peripheral B cells, T cells, NK cells, monocytes. As to the kind of experiment: Phase 1/1B clinical trial: circulating lymphocyte subsets in whole blood by flow cytometry. Type of data set: in vivo, human. The protocol: The highest line at day 10 represents 1 mg/kg, the second highest line at day 10 represents 3 mg/kg, the second lowest line at day 10 represents 6 mg/kg, and the lowest line at day 10 represents 12 mg/kg.
Whole blood was collected pre-treatment or at 0.5 hr or 24 hr after administration of CPI-006 as a single agent (left) or in combination with CPI-444 (right). The absolute number of CD19+ B cells, CD3+ T cells, CD3+CD4+ T cells, CD3+CD8+ T cells, and CD3−CD16+CD56+ NK cells were determined by flow cytometry with quantification beads.
Blood was collected pre-treatment or 0.5 hr after administration of CPI-006. The absolute number of CD19^+ B cells, as well as the percentage of B cells positive for CD73, were determined using flow cytometry.
Whole blood samples from the patients treated with a single dose (i.e., 1 mg/kg, 3 mg/kg, or 6 mg/kg) of CPI-006 monotherapy were analyzed by flow cytometry to further evaluate immunomodulatory effects. Levels of B cells (CD19+CD3−) are reported as a percent of total lymphocytes (gated based on scatter properties), as shown in FIG. 4A. CD73 expression was evaluated with a non-competing anti-CD73 antibody and is reported on B cells (CD19+CD3−) and T cells (CD19−CD3+), as shown in FIG. 4B. Purified B cells from healthy human donors were incubated with CPI-006 or human IgG1 isotype control at concentrations of 0.1 μg/mL, 1 μg/mL, and 10 μg/mL for 30 minutes.
A general note: A flow cytometer gives signals particle by particle.

For data set [6], the system named is inflammatory cytokines. As to the kind of experiment: Phase 1/1B clinical trial: serum cytokine levels. In kind it is in vivo, human. Conditions: patients following treatment. The protocol: as §1
[7] abbreviates: with increasing doses of CPI-006, first infusion, FIGS. 3A-3D.

Several values for one entry are separate records, joined by “and”; a condition that tells them apart may be missing. Equal entries are not always repeated.

B1: CPI-006: humanized CD73 antibody, wherein the light chain is SEQ ID NO:8 and the heavy chain is SEQ ID NO:7; IgG1 Fcγ receptor-deficient (antibody, V domains shown)
VH: QVQLVQSGAEVEKPGASVKVSCKASGYTFTSYWITWVRQAPGQGLEWMGDIYPGSGNTNYNEKFKTRVTITADKSTSTAYMELSSLRSEDTAVYYCAKEGGLTTEDYALDYWGQGTLVTV
VL: EIVLTQSPATLSLSPGERATLSCRASKNVSTSGYSYMHWYQQKPGQAPRLLIYLASNLESGIPPRFSGSGYGTDFTLTINNIESEDAAYYFCQHSRELPFTFGQGTKVEIK
In the case of B1, the “generation of new T cell clones” value in data set [1] (12 or 18 mg/kg CPI-006, or 12 mg/kg CPI-006 + ciforadenant, 6 weeks, FIGS. 11A-11C) is recorded as “new T cell clones were generated”. For the same molecule, in data set [1] (after 6 weeks of treatment, peripheral blood), the “evaluated patients with expansion of new T cell clones” value is 3 of 8. The “Serum CPI-006 at C1D8” value in data set [2] (1 mg/kg, patients 1-3, BLQ is below limit of quantification) is “BLQ”. Further, in data set [2] (6 mg/kg, patient 7 (Colorectal)), the “Serum CPI-006 at C1D8” value is 23.60 µg/mL. Further, the PK dose dependence entry in data set [2] (clinical data, 1, 3, and 6 mg/kg) was “dose proportional”. Also, the “time detectable in serum after administration” value in data set [2] (single dose of 6 mg/kg or higher) turned out to be 21 days. In data set [2] (setting [7]), the clearance entry is “decreases” and the “exposure to CPI-006” value is recorded as “increases”. Moreover, in data set [3], the “CD73 enzymatic activity in tumor biopsy” value was “inhibit CD73 enzymatic activity”; the “occupancy of CD73 in tumor biopsy” value was “binds and saturates CD73”. Also, the “CD73 enzymatic activity in tumor xenograft” value in data set [4] is “blocks CD73 enzymatic activity”. The “% Decrease of Peripheral B cells at C1D1 (0.5 h)” value in data set [5] (3 mg/kg, patients 4-6 (Pancreatic, Pancreatic, Prostate)) was 71.2% and 62.3% and 68.1%. In data set [5] (1 to 12 mg/kg, repeated infusions, FIG. 7C), the “CD73POS B cells levels over time” value was “decrease with each infusion of CPI-006, and then partially return to a new steady state level”. Moreover, the “CD4/CD8 ratios, including CD73NEG subsets” value in data set [5] (0.5 hours after administration, FIGS. 7A-7B) was “increase”. The “number of circulating cells, all evaluated lymphocyte subsets (B, T, CD4+ T, CD8+ T, NK)” value in data set [5] (0.5 hr post-treatment versus pre-treatment, FIG. 12) is listed as “decreased”. In data set [5] (0.5 hr post-treatment, FIG. 13), the “number of circulating CD73+ B cells” value is “substantially decreased” and the “number of circulating CD73− B cells” value is recorded as “either unchanged or modestly decreased”. Also, in data set [5] (24 hr post-treatment, FIG. 12), the “number of circulating B cells” value is recorded as “partial return” and the “number of circulating cells, other cell types (T, NK)” value is on record as “returned to near baseline levels”. Moreover, the HLA-DR expression entry in data set [5] (cancer patients receiving 6 mg/kg monotherapy, FIG. 7D) is “increase in HLA-DR expression, followed by a gradual decrease”. In addition, in data set [5] (clinical data, FIGS. 4A-4B), the B lymphocyte trafficking entry is given as “transient redistribution of B cells”. Besides, the “CD73NEG B cells” value in data set [5] (following treatment) is “No significant changes”. Also, the “cytokines including TNF-α, TNF-β, MIP-1α, MIP-1β, IL-6, IL-10, IL-8, IP-10, MCP-1, MCP-2, IL-1Ra, GRO-α, MIP-3α, TNF-RII, IL-7, MMP-9” value in data set [6] (FIG. 8A) was “rapid induction”. For the same molecule, the “levels of CRP and SAA” value in data set [6] (FIG. 8B) is listed as “subsequent increase”.
